Results on twelve molecules are retold here after paper doi:10.1101/2025.05.23.649291 (bioRxiv, 2025).

Experiment [1] concerns the target T1, rhesus monkey TfR1 fused to EGFP, on CHO-rhTfR1-EGFP cells (Macaca mulatta, UniProt H9Z2T8). Briefly: immunostaining of cells or tissue.
Experiment [2] addresses T2, human TfR1 fused to EGFP, on CHO-hTfR1-EGFP cells (human, UniProt P02786). The experiment can be described thus: flow cytometry on cells. Background: A flow cytometer gives signals particle by particle.
Experiment [3] addresses mFc-mouse TfR1 ectodomain (mouse IgG2a Fc fusion) (Mus musculus, UniProt Q62351). Briefly: SPR. (In SPR one partner is held on a chip, and binding of the other changes the refractive index at the surface.)
Experiment [4] has as its target mFc-human TfR1 ectodomain (mouse IgG2a Fc fusion) (Homo sapiens, UniProt P02786). The experiment can be described thus: SPR.
In experiment [5] the target is mouse NTSR1 fused to GFP, on Expi293 cells (mouse, UniProt O88319). Briefly: flow cytometry on cells.
In experiment [6] the target is T1, rhesus monkey TfR1 fused to EGFP, on …. The experiment can be described thus: flow cytometry on cells.
The target in experiment [7] is mFc-rhesus monkey TfR1 ectodomain (mouse IgG2a Fc fusion) (Macaca mulatta, UniProt H9Z2T8). The experiment can be described thus: SPR.
Experiment [8] deals with T3, mouse TfR1 fused to EGFP, on CHO-mTfR1-EGFP cells (Mus musculus, UniProt Q62351). Briefly: immunostaining of cells or tissue.
Experiment [9] concerns the target T1, rhesus monkey TfR1 fused to EGFP, on …. The experiment can be described thus: immunostaining of cells or tissue. The source holds these as a separate data set.
Experiment [10] deals with T2, human TfR1 fused to EGFP, on …. The experiment can be described thus: immunostaining of cells or tissue.
Experiment [11] concerns the target T3, mouse TfR1 fused to EGFP, on …. The experiment can be described thus: immunostaining of cells or tissue. The source holds these as a separate data set.

Substitutions are numbered along the chain they refer to. Like-named read-outs stand apart in the source and are kept apart here.

Chain of mFc-mouse TfR1 ectodomain (mouse IgG2a Fc fusion) (Q62351 89-763): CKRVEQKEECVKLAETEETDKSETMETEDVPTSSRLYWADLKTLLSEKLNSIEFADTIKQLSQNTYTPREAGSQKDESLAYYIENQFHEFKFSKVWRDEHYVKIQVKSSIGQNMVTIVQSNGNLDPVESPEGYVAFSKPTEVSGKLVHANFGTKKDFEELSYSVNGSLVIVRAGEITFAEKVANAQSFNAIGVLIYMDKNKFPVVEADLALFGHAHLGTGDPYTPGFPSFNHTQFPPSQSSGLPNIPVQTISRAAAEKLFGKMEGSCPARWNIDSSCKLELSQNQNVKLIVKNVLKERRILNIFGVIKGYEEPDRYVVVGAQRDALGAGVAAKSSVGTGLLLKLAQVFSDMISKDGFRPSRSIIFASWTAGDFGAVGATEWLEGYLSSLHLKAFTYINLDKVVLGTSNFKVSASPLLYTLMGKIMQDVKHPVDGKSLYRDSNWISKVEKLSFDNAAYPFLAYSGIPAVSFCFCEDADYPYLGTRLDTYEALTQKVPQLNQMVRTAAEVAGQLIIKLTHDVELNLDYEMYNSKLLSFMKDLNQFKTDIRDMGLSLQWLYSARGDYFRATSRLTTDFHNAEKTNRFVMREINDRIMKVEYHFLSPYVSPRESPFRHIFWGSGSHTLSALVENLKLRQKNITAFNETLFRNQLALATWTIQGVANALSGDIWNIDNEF
Chain of mouse NTSR1 fused to GFP, on Expi293 cells (O88319 whole entry, the tested form may be a part): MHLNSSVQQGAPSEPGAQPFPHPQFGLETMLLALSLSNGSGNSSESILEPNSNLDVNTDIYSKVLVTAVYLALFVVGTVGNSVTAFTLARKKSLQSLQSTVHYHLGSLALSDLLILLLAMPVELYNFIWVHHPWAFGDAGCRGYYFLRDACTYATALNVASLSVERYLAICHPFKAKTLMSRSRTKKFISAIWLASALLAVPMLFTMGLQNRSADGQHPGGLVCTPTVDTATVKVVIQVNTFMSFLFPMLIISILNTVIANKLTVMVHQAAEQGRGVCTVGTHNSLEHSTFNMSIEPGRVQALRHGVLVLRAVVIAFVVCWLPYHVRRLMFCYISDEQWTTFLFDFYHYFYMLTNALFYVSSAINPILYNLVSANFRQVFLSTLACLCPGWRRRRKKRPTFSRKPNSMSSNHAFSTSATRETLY
T3 sequence (Q62351 whole entry, the tested form may be a part): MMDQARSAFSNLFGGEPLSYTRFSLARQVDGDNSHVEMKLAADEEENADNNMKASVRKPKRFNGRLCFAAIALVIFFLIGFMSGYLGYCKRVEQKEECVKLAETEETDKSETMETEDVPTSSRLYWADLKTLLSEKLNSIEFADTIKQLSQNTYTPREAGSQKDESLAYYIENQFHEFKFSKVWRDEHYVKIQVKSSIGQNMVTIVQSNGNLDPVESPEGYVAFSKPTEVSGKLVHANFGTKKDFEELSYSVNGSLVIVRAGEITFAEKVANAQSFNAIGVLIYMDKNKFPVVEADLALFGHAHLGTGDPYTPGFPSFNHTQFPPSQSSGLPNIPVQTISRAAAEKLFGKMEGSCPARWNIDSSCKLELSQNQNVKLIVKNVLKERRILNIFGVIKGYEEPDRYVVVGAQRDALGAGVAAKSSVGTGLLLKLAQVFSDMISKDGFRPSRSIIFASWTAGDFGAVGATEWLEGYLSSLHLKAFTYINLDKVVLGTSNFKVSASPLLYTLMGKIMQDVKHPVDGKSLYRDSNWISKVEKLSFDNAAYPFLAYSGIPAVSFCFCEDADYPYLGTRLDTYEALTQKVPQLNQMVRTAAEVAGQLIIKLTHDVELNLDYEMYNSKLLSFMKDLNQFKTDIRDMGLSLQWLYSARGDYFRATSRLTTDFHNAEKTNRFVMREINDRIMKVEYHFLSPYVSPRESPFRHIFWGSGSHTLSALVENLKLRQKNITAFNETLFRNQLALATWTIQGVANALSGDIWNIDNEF

B1: VHH C5 (VHH)
chain: EVQLVESGGGVVQPGGSLKLSCVASGTDFSINFIRWYRQAPGKQREFVAGFTATGNTNYADSMKGRFTISRDNTKNAVYLQIDSLKPEDTAVYYCYMLDKWGQGTQVTVSS
The Kd is the concentration at which binding is half-saturated. For the molecule B1, the binding result in experiment [1] is “binds”. For the same molecule, the figures for the Kd in experiment [2] and in experiment [3] were 3.1 nM and approximately 110 nM, respectively.

B2: C5-NT(8-13) (VHH)
VHH: B1 chain
A word on the koff: it is the first-order rate constant of dissociation. As a reminder, the kon is a measure of how fast the partners come together. In [4], B2 showed an equilibrium dissociation constant (Kd) of 0.1 nM, a koff of 0.00016 s⁻¹ and a kon of 1.36e+06 M⁻¹ s⁻¹.

B3: C5V30 (VHH)
VHH: B1 chain with F29K
Turning to B3, the binding result in [4] is “binds”.

B4: C5neg-NT(8-13) (VHH)
VHH: B1 chain with Y96A, L98A
For B4, in [5], the binding result was “binds”.

B5: VHH B8 (VHH)
chain: EVQLVESGGGVVQPGGSLRLSCAASGEIFSINFMRWYRQAPGKQREWVAGFTRDGSTNYPDSAKGRFTISRDNAKNTVYLQIDSLKPEDTAVYYCYMLDTWGQGTQVTVSS
For B5, the figures for the Kd in [2] and in [3] were 2.4 nM and approximately 30 nM, respectively. Besides, in [6], the binding result is “binds”.

B6: B8V37 (VHH)
VHH: B5 chain with R71E, D99R
Turning to B6, in [4], the binding result is “binds”.

B7: B8-NT(8-13) (VHH)
VHH: B5 chain
On to B7, for which, in [5], the binding result was “binds”.

B8: B8V34-NT(8-13) (VHH)
VHH: B5 chain with F29R, S62I
In [4], B8 had a Kd of 16.9 nM.

B9: B8V40 (VHH)
chain: B5 chain with F29K, A49S
Take B9: the binding result in experiment [7] and in experiment [4] was “binds” in each case.

B10: B8V31 (VHH)
chain: B5 chain with F29K
For the molecule B10, the binding result in [7] and in [4] was “binds” in each case.

B11: VHH B6 (VHH)
VHH: EVQLVESGGGLVQPGGSLRLSCTASGGPIEQYPMGWFRRAPGKERELVASISRSGDGTYYAISSVKGRFTISRDNAENTVFLQMNSLKPDDTAVYYCGAGINPTKIWGQGTQVTVSS
The molecule B11 showed a Kd in [2] of 2.7 nM. Besides, the binding result in experiment [8] and in [9] was “no binding (tested: 50 µg/ml)” throughout.

B12: VHH H3 (VHH)
VHH: EVQLVESGGGEVQPGGSLKLSCVASGTDFSINFVRWYRQRPGKQREWVAGFTANGDTNYPDSMKGRFTISRDNAKNTVYLQINSLKSEDTAVYYCYMLDNWGQGTQVTVSS
In the case of B12, the binding result in experiment [10], in experiment [11] and in experiment [6] was “binds” each time.
